Assay results taken from US20260043020A1, “BINDING MEMBERS WITH ALTERED DIVERSITY SCAFFOLD DOMAINS” (priority 2016, published 2026).

T1: trypsin (Bos taurus, UniProt P00760)
T1 construct: gene PRSS1
T1 sequence (P00760 24-246): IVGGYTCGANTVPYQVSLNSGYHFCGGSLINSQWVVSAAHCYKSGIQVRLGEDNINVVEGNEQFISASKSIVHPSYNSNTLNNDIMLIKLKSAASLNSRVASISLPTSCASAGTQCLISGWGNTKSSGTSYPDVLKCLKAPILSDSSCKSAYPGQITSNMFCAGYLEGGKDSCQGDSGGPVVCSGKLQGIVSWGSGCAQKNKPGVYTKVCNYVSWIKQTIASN


Experiments:
trypsin [1] = molecular target: T1, trypsin; test: Monoclonal phage TRF binding assay on trypsin (KnotBody clones and GlyAla mutants); details: for % reduction in binding signal: GlyAla mutant (EETI-II Pro3 to Gly, Arg4 to Ala) of the clone versus the clone, monoclonal phage, trypsin on streptavidin plates; for Tryspin binding signal (FU): monoclonal phage supernatant of round-2 clones, biotinylated trypsin on neutravidin plates
Method: Phage display technology facilitates isolation of binders to any given target from large combinatorial repertoires based on proteins and peptides that can be presented on the surface of filamentous phage^105. In order to isolate functional knottin-antibody fusions from the KnotBody libraries multiple rounds of phage display selections on trypsin (cognate antigen for the EETI-II donor) were carried out. Phage particles were prepared by rescuing KnotBody libraries using trypsin cleavable helper phage^102,106Two rounds of phage display selections were performed on 10 μg/ml biotinylated trypsin immobilised on Streptavidin (for Round-1) or Neutravidin (for round-2) coated Maxisorp™ immunotubes (Thermo Scientific, Cat No. 444202). In both rounds of selection, phage libraries were pre-incubated with streptavidin coated paramagnetic beads (Thermo Fisher Scientific, Cat. No. 11205D). These beads were removed prior to the addition the phage to the antigen tubes to limit the streptavidin binders entering the selection. Polyclonal phage preparations from round-2 selection outputs were analysed for trypsin binding using a time resolved fluorescence (TRF) binding assay. In this assay, polyclonal phage binding to biotinylated trypsin immobilised on neutravidin (Thermo Fisher Scientific, Cat. No 31000) coated Maxisorp™ plates (Thermo Scientific, Cat. No. 437111) was detected using a mouse anti-M13 antibody (GE Healthcare, Cat. No. 27-9420-01) followed by europium conjugated anti-mouse antibody (Perkin Elmer, Cat. No. AD0124).
In order to identify monoclonal KnotBodies with desired binding characteristics, 94 individual clones derived from 2 rounds of selection using EETI-II CDR1 or CDR2 libraries were picked into 96 well culture plates and phage were prepared from each clone. Methods for screening by monoclonal phage ELISA are known in the art^107. […] Clones with >3× binding signal above background were picked as positive clones and sequenced to identify unique clones. 14 and 42 unique binders were identified from EETI-II CDR1 and EETI-II CDR2 libraries respectively (Table 1). 18 binders from the EETI-II CDR2 library and 3 binders from the EETI-II-CDR1 library were chosen for further characterisation based on their VL and linker sequence diversity. These binders were assigned new clone identification numbers (Table 2).
The trypsin binding capability of EETI-II is attributed to proline (Pro3) and arginine (Arg4) residues present in its loop1 (GCPRILMRC; SEQ ID NO: 68). […] Monoclonal phage was prepared from the 21 selected clones and their mutant equivalents. […] Replacement of the trypsin-binding residues of EETI-II abolished the ability of all KnotBody clones to bind to trypsin (Table 3). In order to confirm that the loss of trypsin binding was not due to reduced expression or display of pIII fusion phage was prepared from 11 (randomly chosen) KnotBodies and their GlyAla variants were analysed on a western blot using an antibody which recognises the product of gene 3 (pIII) using an anti-pIII antibody (MoBiTec GmbH) (FIG. 6).

trypsin [2] = molecular target: T1, trypsin; test: KnotBody Fab TRF binding assay on trypsin; details: Fab format
trypsin [3] = molecular target: T1, trypsin; test: Monoclonal phage ELISA on trypsin, EET 5-3 framed KnotBodies; format: binding; details: value in brackets after the clone name
Excerpt: Following selection on trypsin, as described in example 3, positive clones were identified by monoclonal phage ELISA and their sequences determined. Examples of positive clones in CDR1 or CDR 2 of kappa and lambda light chains are shown in Table 29 with the linker sequences shown in lower case and the knottin donor in a 5-3 frame shown in italics. Also shown is the value of ELISA signal attained from monoclonal phage ELISA. The specificity of interaction was further confirmed by mutating the pair of Proline-Arginine residues involved in interaction with trypsin to alanine-alanine which diminished binding (as described in example 3).

Molecule | % reduction in binding signal (trypsin [1]) [%] | Tryspin binding signal (FU) (trypsin [1]) | TRF signal for 0.6 ug/mL Fab (trypsin [2]) | TRF signal for 2.4 ug/mL Fab (trypsin [2]) | TRF signal for 10 ug/mL Fab (trypsin [2]) | ELISA signal from monoclonal phage ELISA (trypsin [3])
KB_B11: KnotBody, EETI-II in VL CDR1; VL SEQ ID NO: 86 (antibody, V domains shown, heavy chain missing; CDR1_F_02) VL: QSVLTQPPSVSEAPRQRVTITCGSRPCPRILMRCKQDSDCLAGCVCGPNGFCGSHNWYQQLPGSSPTTVIYEDNQRPSGVPDRFSGSIDRSSNSASLTISGLKTEDEADYYCQSYDSSNHRVVFGGGTKLTVLGQP | 100 | 10286 | – | – | – | –
KB_C09: KnotBody, EETI-II in VL CDR2; VL SEQ ID NO: 120 (antibody, V domains shown, EETI-II in VL CDR2; CDR2_C_08) VL: QSVLTQPPSVSEAPRQRVTITCSGSSSNIGNNAVNWYQQLPGKAPKLLIYAAGRCPRILMRCKQDSDCLAGCVCGPNGFCGGGSGVPDRFSGSIDSSSNSASLTISGLRAEDEADYYCQSYDSSNHWVFGGGTKLTVLGQP | 100 | 89424 | 46788 | 204878 | 288988 | –
KB_C10: KnotBody, EETI-II in VL CDR2; VL SEQ ID NO: 123 (antibody, V domains shown, EETI-II in VL CDR2; CDR2_E_05) VL: QSVLTQPPSVSEAPRQRVTITCSGSSSNIGNNAVNWYQQLPGKAPKLLIYAAGPCPRILMRCKQDSDCLAGCVCGPNGFCGADSGVSDRFSGSKSGTSASLAITGLQAEDEGDYYCAAWDDSLNGLVFGGGTKVTVLGQP | 100 | 118631 | 41709 | 146488 | 238066 | –
G11: KnotBody with EET 5-3 framed EETI-II in VL CDR2; SEQ ID NO: 317 (protein, G11 (27650)) QSVLTQPPSVSEAPRQRVTITCSGSSSNIGNNAVNWYQQLPGKAPKLLIYAAGGCGPNGFCGSGSDGGVCPRILMRCKQDSDCLAGCGQSSGVSDRFSGSKSGTSATLDITGLQTGDEADYYCGTWDNSLSVGVFGGGTKVTVLGQP | – | – | – | – | – | G11 (27650)
F01: KnotBody with EET 5-3 framed EETI-II in kappa VL CDR2; SEQ ID NO: 312 (protein, F01 (101798)) DIQMTQSPSSLSASVGDRVTITCRASQSISSYLNWYQQKPGKAPKLLIDAAGECGPNGFCGSGSDGGVCPRINMRCKQDSDCLAGCGRDSGVPSRFSGSGSGTDFTLTISSLQPEDFATYYCQQSYSTPWTFGQGTKVEIKRT | – | – | – | – | – | F01 (101798)
F07: KnotBody with EET 5-3 framed EETI-II in VL CDR2; SEQ ID NO: 314 (protein, F07 (72824)) QSVLTQPPSVSEAPRQRVTITCSGSSSNIGNNAVNWYQQLPGKAPKLLIYAAGGCGPNGFCGSGSDGGVCPRILMRCKQDSDCLAGCGGQSGVPDRFSGSKSGTSASLAISRLQSEDEADYYCAAWDDSLNAYVFGTGTKVTVLGQP | – | – | – | – | – | F07(72824)
